For test [1], the target named is GST-tagged TgIST-R2 (Toxoplasma gondii). As to the kind of experiment: BLI.
Test [2] concerns the target phosphorylated STAT1 dimer (pSTAT1d) (UniProt P42224). As to the kind of experiment: BLI. In general terms: In BLI a coated tip is dipped into the sample, and binding shifts an interference pattern.

A word on the Kd: it is the concentration at which binding is half-saturated. Read a high Kd as lower affinity. In the case of “phosphorylated STAT1 dimer (pSTAT1d) (from UniProt P42224 132-713) (domain or fragment)”, in test [1], the Kd amounted to 22 nM.

“TgIST-R2 peptide after GST removal (domain or fragment)” displayed a Kd in test [2] of 330 nM. In other words, the sub-micromolar range.

Source of the values: article doi:10.1101/2021.08.09.455663.
